This is an account of results in publication PMC2932715.

Test [1] has as its target hemagglutinin (HA) ectodomain from A/New York/107/2003 (H7N2) (influenza A virus A/New York/107/2003 (H7N2)). Briefly: crystal structure.
Test [2] has the same target. Briefly: SEC. Background: In gel filtration, larger molecules generally elute earlier.

“hemagglutinin (HA) ectodomain from A/New York/107/2003 (H7N2) (natural protein)”: the stoichiometry N in test [1] and in test [2] was 3 each time.
